Target: His-tagged Pasteurella lipoprotein E (PlpE) of P. multocida (Pasteurella multocida)
Test: BLI

B1: ABCF2 used as analyte in bio-layer interferometry (natural protein)
chain: MPSDLAKKKAAKKKEAAKARQRPRKGHEENGDVVTEPQVAEKNEANGRETTEVDLLTKELEDFEMKKAAARAVTGVLASHPNSTDVHIINLSLTFHGQELLSDTKLELNSGRRYGLIGLNGIGKSMLLSAIGKREVPIPEHIDIYHLTREMPPSDKTPLHCVMEVDTERAMLEKEAERLAHEDAECEKLMELYERLEELDADKAEMRASRILHGLGFTPAMQRKKLKDFSGGWRMRVALARALFIRPFMLLLDEPTNHLDLDACVWLEEELKTFKRILVLVSHSQDFLNGVCTNIIHMHNKKLKYYTGNYDQYVKTRLELEENQMKRFHWEQDQIAHMKNYIARFGHGSAKLARQAQSKEKTLQKMMASGLTERVVSDKTLSFYFPPCGKIPPPVIMVQNVSFKYTKDGPCIYNNLEFGIDLDTRVALVGPNGAGKSTLLKLLTGELLPTDGMIRKHSHVKIGRYHQHLQEQLDLDLSPLEYMMKCYPEIKEKEEMRKIIGRYGLTGKQQVSPIRNLSDGQKCRVCLAWLAWQNPHMLFLDEPTNHLDIETIDALADAINEFEGGMMLVSHDFRLIQQVAQEIWVCEKQTITKWPGDILAYKEHLKSKLVDEEPQLTKRTHNV
**Q.** B1 was tested. Which Kd did it give?
**A.** The Kd was 970 nM.
